The results in this text go back to the nanobody polyreactivity screen of Harvey et al. (2022).

A short description of this data set: yeast display, Sf9 membrane polyspecificity reagent, FACS + sequencing; frameworks hold sequencing errors. In a few lines:
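Sorting gates, low and high (top ~1%), were placed on anti-HA fluorescence to track expression and on streptavidin fluorescence to track reagent binding. A clone's polyreactivity label is taken from the gate it came out of. The reagent was 10% biotinylated, detergent-solubilized Sf9 membrane, applied for 1 hour at 4 °C to galactose-induced yeast display cells.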
Consider “QVQLVESGGGLVQAGGSLRLSCAASGRTFSGYAMGWYRQAPGKERELVAVITYSGGSTYYADSVKGRFTISRDNAKNTVYLQMNSLKPEDTAVYYCNADYVIFYQLVEYDYWGQGTQVTVSS”, for which the “polyreactivity (PSR sort gate)” value is recorded as “low polyreactivity”.
With “QVQLVESGGGLVQAGGSLRLSCAASGRTFSHYAMGWYRKAPGKERELVDTITRNGGITYYADSVKGRFTISRDNAKNTVYLQMNSLKPEDTAVYYCNTETYHVRRLFDYWGQGTQVTVSS”, the “polyreactivity (PSR sort gate)” value is “low polyreactivity”.
For “QVQLVESGGGLVQAGGSLRLSCAASGRTFSHYAMGWYRQAPGKERELVAAISGSGGTTYYADSVKGRFTISRDNAKNTVYLQMNSLKPEDTAVYYCNTRGRYLMDYWGQGTQVTVSS” the value was “high polyreactivity”; for “QVQLVESGGGLVQAGGSLRLSCAASGRTFSIYAMGCYRQAPGKEREFVAAIRDRGTSTYYADSVKGRFTISRDNAKNTVYLQMNSLKPEDTGVFYCAAVRPYKYQDRDYWGQGTQVTVSS”, “high polyreactivity”; for “QVQLVESGGGLVQAGGSLRLSCAASGRTFSKYTMGWYIQAPGKERELVAAISYSGGSTYYADSVKGRFTISRDNAKNTVYLKMNSLKPEDTAVYYCAARASTYKYYYWGQGTQVTVSA”, “high polyreactivity”.
For “QVQLVESGGGLVQAGGSLRLSCAASGRTFSLYAMGWYRQAPGKERELVAAISWGGGSTYYADSVKGRFTISRDNAKNTVYLQMNSLKPEDTAVYYCAADDVSATKYEDDYWGQGTQVTVSS” the value was “low polyreactivity”; for “QVQLVESGGGLVQAGGSLRLSCAASGRTFSLYAMGWYRQAPGKERELVAAITLSAGSTYYADSVKGRFTISRDNAKNTVYLQMNSLKPEDTAVYYCNAAAYVWKSKQLLYVITYDYWGQGTQVTVSS”, “high polyreactivity”.
In the case of “QVQLVESGGGLVQAGGSLRLSCAASGRTFSLYAMGWYRQAPGNDRELVAAISYNGGRTYYADSVKGRFTISRDNAKNTVYLQLNCLKQDDTAVYYCAADHGDPGGYDYWGQGTQVTVSS”, the “polyreactivity (PSR sort gate)” value is “high polyreactivity”.
As to “QVQLVESGGGLVQAGGSLRLSCAASGRTFSPNAMGWYRQAPGKERELVASITAIGSRTYYADSVKGRFTISRDKAKNTVYLQMNSLKPEDTAVYYCAKDDELYGTKMYSWGQGTQVTVSS”, the “polyreactivity (PSR sort gate)” value is “low polyreactivity”.
As for “QVQLVESGGGLVQAGGSLRLSCAASGRTFSQYAMGWYRQAPGKERELVAAISWSGGSTYYADSVKGRFTISRDNAKNTVYLQMNSLKPEDTAVYYCAAVGKGSARSSYPVLYDYCGQGTQVTVSS”, the “polyreactivity (PSR sort gate)” value was “low polyreactivity”.
“QVQLVESGGGLVQAGGSLRLSCAASGRTFSRNAMGWYRQAPGKERELVATISRGGGITFYADSVKGRFTISRDNAKNTVYLQMNSLKPEDTAVYYCNADVRYVGLRRIVDYWGQGTQVTVSS”: the “polyreactivity (PSR sort gate)” value is listed as “high polyreactivity”.
In the case of “QVQLVESGGGLVQAGGSLRLSCAASGRTFSRNTMGWYRQAPGKERELVAAIRSGGRTDYADSVKGRFTISRDNAKNTVYLQMNSLKPEDTAVYYCATVAGVSRWRGGYWGQGTQVTVSS”, the “polyreactivity (PSR sort gate)” value is listed as “low polyreactivity”.
With “QVQLVESGGGLVQAGGSLRLSCAASGRTFSRYAMGWSRQAPGKERELVASITSRGGSTYYADSVKGRFTISRDNAKNTVYLQMNSLKPEDTAVYYCNVKPTYSTRYWEDYWGQGTQVTVSS”, the “polyreactivity (PSR sort gate)” value was “high polyreactivity”.
Turning to “QVQLVESGGGLVQAGGSLRLSCAASGRTFSRYAMGWYRPAPGKERELVAAISWRGSSTYYADSVKGRFTISRDNAKNTVYLQMNSLKPEYTAVYYCNTVTYPYVPALFDYWGQGTQVTVSS”, the “polyreactivity (PSR sort gate)” value is recorded as “high polyreactivity”.
Consider “QVQLVESGGGLVQAGGSLRLSCAASGRTFSRYAMGWYRQAPGKERELVAAISRGGGSTNYADSVKGRFTISRDNAKNTVYLQMNSLKPEDTAVYYCASEYRYDWYTYGSWGQGTQVTVSS”, for which the “polyreactivity (PSR sort gate)” value was “high polyreactivity”.
For “QVQLVESGGGLVQAGGSLRLSCAASGRTFSRYAMGWYRQAPGKERELVAAISRSGGITYYADSVKGRFTISRDYAKNTVYLQMNSLKPEDTAVYYCAKVYPRVGYDYWGQGTQVTVSS”, the “polyreactivity (PSR sort gate)” value is listed as “high polyreactivity”.
Consider “QVQLVESGGGLVQAGGSLRLSCAASGRTFSRYAMGWYRQAPGKERELVAAITRSGGSTYYADSVKGRFTISRDNAKNTVYLQMNSLKPEDTAVYYCATERNLRNYDYWGQGTQVTVSS”, for which the “polyreactivity (PSR sort gate)” value is given as “high polyreactivity”.
Take “QVQLVESGGGLVQAGGSLRLSCAASGRTFSRYAMGWYRQAPGKERELVAAITWSGGRTYYADSVKGRFTISSDNAKNTVYLQMNSLKPEDTAVYYCAASYRCYKHADPLYNYWGQGTQVTVSS”: the “polyreactivity (PSR sort gate)” value is reported as “low polyreactivity”.
Turning to “QVQLVESGGGLVQAGGSLRLSCAASGRTFSRYAMGWYRQAPGKERELVAAITYSGGRTYYADSVKGRFTISRDNAKNTVYLQMNSLKPEDTAVYYCAKGTTSDPGYGYWGQGTQVTVSS”, the “polyreactivity (PSR sort gate)” value is given as “low polyreactivity”.
With “QVQLVESGGGLVQAGGSLRLSCAASGRTFSRYAMGWYRQSPGKERELVAAITSGGGSTYYADSVKGRFTISRDNAKNTVYLQMNSLKPEDTAVYYCAVRSAPIVYVYVASWWSLYDYWGQGTQVTVSS”, the “polyreactivity (PSR sort gate)” value is “low polyreactivity”.
For the sequence “QVQLVESGGGLVQAGGSLRLSCAASGRTFSRYAMGWYRRAPGKERELVAAITKSGGSTYYADSVKGRFTISRDNAKITVYLQMNSLKPEDTAVYYCAVRYGGRFFRKYDYWGQGTQVTVSS”, the “polyreactivity (PSR sort gate)” value is on record as “high polyreactivity”.
Take “QVQLVESGGGLVQAGGSLRLSCAASGRTFSRYVMGWYRQAPGKERELVATISRSGGSTFYADSVKGRFTISRDTAKNTVYLQMNSLKPEDTAVYYCNKKVQGYQVTYGYCGQGTQVTVSS”: the “polyreactivity (PSR sort gate)” value is reported as “high polyreactivity”.
Take “QVQLVESGGGLVQAGGSLRLSCAASGRTFSSNAMGWYRQAPGKERELVASISFRGGRTYYADSVKGRFTISRDNAKNTVYLQMNSLKPVDTAVYYCATAYYYFSPSRADGEYWGQGTQVTVSS”: the “polyreactivity (PSR sort gate)” value is listed as “high polyreactivity”.
“QVQLVESGGGLVQAGGSLRLSCAASGRTFSSYAMGGYRKAPGKERELVAAISKRGVRTSYADSVKGRFTISRDNAKNTVYLQMNRLKPEDTAVYYCNATLGRTTAVFKYYWGQGTQVTVSS”: the “polyreactivity (PSR sort gate)” value was “high polyreactivity”.
In the case of “QVQLVESGGGLVQAGGSLRLSCAASGRTFSSYTMGWYRQAPGKEREMVAAISKSGASTYYADSVKGRFTISRDNAKNTVYLQMNSLKPEDTAVYYLAARAYPFKIDGYWGQGTQVTVSS”, the “polyreactivity (PSR sort gate)” value was “high polyreactivity”.
For the sequence “QVQLVESGGGLVQAGGSLRLSCAASGRTFSTNAMGLYRQAPGKEREFVAAITGSGGSTYYADSVKGRFTISRDNAKNTVYLQINSLKPEDTAVYYCAKRSAWHTYRYGYWGQGTQVTVSS”, the “polyreactivity (PSR sort gate)” value was “high polyreactivity”.
“QVQLVESGGGLVQAGGSLRLSCAASGRTFSTNAMGWYRQAPGKERELVAAISASGGSTYYADSVKGRFTISRDNAKNTVYLQMNSLKPEDTAVYYCAAYPGQWRTGYDYWGQGTQVTVSS”: the “polyreactivity (PSR sort gate)” value is recorded as “high polyreactivity”.
As for “QVQLVESGGGLVQAGGSLRLSCAASGRTFSTNAMGWYRQAPGKERELVAAITSRGGSTYYADSVKGRFTISRDNAKNTVYLQMNSLKPEDPAVYYCAVDPLYYKTHYGTLGYYYLGQGTQVTVSS”, the “polyreactivity (PSR sort gate)” value is listed as “low polyreactivity”.
“QVQLVESGGGLVQAGGSLRLSCAASGRTFSTYAMGWYRQAPGKERELFAAISSGGGRTYYADSVKGRFTISRDNAKNTVYLQMNSLKPEDTAVYYCAADRYFRSRRSYEYWGQGTQVTVSS”: the “polyreactivity (PSR sort gate)” value is recorded as “low polyreactivity”.
As to “QVQLVESGGGLVQAGGSLRLSCAASGRTFSTYAMGWYRQATGKERELVAAIRSGGSTYYADSVKGRFTISRDNAKNTVYLQMNSLKPEDTAVYYCNALPRPSIFRYDYWGQGTQVTVSS”, the “polyreactivity (PSR sort gate)” value is “high polyreactivity”.
